Experimental data from the RNAGym collection of RNA variant scans (doi:10.1093/nar/gkz1192).

B1: CPEB3 Ribozyme (parent)
chain: UAACAGGGGGCCACAGCAGAAGCGUUCACGUCGCAGCCCCUGUCAGAUUCUGGUGAAUCUGCGAAUUCUGCUGUAUAUCUC

Variants of: B1
Assay: self-cleavage, relative activity (ratio to wild type); higher = more cleavage; in vitro, sequencing
Method in brief: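 After error-prone PCR and barcoding, CPEB3 ribozyme mutant libraries were transcribed with T7 RNA polymerase at 37°C for 5 hours, then given 15 min with DNase I before an EDTA stop, and they cleaved during both steps. Reverse transcription with template switching preceded Illumina sequencing. Relative activity divides a variant's cleaved/total read fraction by the unmutated ribozyme's. At least 5 reads were required per variant, and three batches were averaged.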

In order of falling self-cleavage:
1. A64G G73U  1.35
2. A64G U74G  1.26
3. A64G G73A  1.24
4. G63U U76A  1.23
5. A64G U74A  1.2
6. G63U U72C  1.2
7. A65G G73U  1.19
8. G63U U76G  1.17
9. A64G U74C  1.15
10. G63U U76C  1.12
11. A64G C79U  1.1
12. A64G U78A  1.07
13. A64G A75C  1.06
14. A65G G73A  1.06
15. U66A G73A  1.04
16. U66C G73U  1.02
17. A64G A75U  1.01
18. G63U U78A  0.98
19. G63A U80A  0.97
20. G63U U78C  0.96
21. G63A C68U  0.96
22. A64G U76A  0.95
23. A64G U76C  0.94
24. G63A U80C  0.93
25. G63A U78A  0.93
26. A64G U72C  0.91
27. A64G U72G  0.87
28. A64G C79A  0.84
29. G63A U78C  0.82
30. U66C G73A  0.81
31. G63U A64G  0.79
32. A65G G73C  0.74
33. A64G A75G  0.71
34. A64G U72A  0.67
35. U66C U74C  0.66
36. A65G U80G  0.66
37. U66A A77U  0.65
38. U66A U80G  0.64
39. A65G C81U  0.63
40. U66C U74A  0.62
41. G63U G70A  0.62
42. U66G U72C  0.61
43. A65G U78A  0.6
44. A65G U80C  0.59
45. U66C G73C  0.58
46. U67A U80A  0.58
47. U67A U80C  0.58
48. A65U G73U  0.57
49. U66C C81A  0.54
50. A65G U80A  0.53
51. A65G U76G  0.53
52. A65G U76C  0.53
53. A65G U72C  0.52
54. U66A  0.51
55. U66A U80C  0.5
56. A65C C81A  0.5
57. A64U A75C  0.5
58. A64U U78A  0.49
59. U66A U80A  0.49
60. A65G C81A  0.48
61. A65G U76A  0.48
62. U66G  0.48
63. U66G U69A  0.47
64. A64C U69G  0.47
65. A64U A77U  0.46
66. U66C U72G  0.46
67. U66A A77G  0.45
68. U67A G70A  0.45
69. A64U A75U  0.45
70. U66C U72C  0.45
71. A65U U69C  0.45
72. A64C U74C  0.44
73. A65G U78G  0.44
74. U66C C81U  0.44
75. U66C  0.44
76. A64G U69G  0.44
77. A64C C81U  0.43
78. U66C C71U  0.43
79. G63U A64U  0.43
80. A65U C81A  0.43
81. A65G U78C  0.42
82. U66G U78C  0.41
83. A65G A75U  0.41
84. A64G U69C  0.41
85. A65G A75G  0.4
86. U67A U69C  0.4
87. A64C U69C  0.4
88. A64U U69G  0.4
89. A65G U72A  0.4
90. A65G U72G  0.4
91. A64U A77G  0.39
92. U66C C79U  0.39
93. U66C C68U  0.39
94. A64U C79U  0.39
95. U66C U72A  0.39
96. U66G C68U  0.38
97. A64C U80C  0.38
98. U66C C79A  0.38
99. A65U U66C  0.38
100. A64G U69A  0.38
101. G63C U66C  0.37
102. A64G G70A  0.37
103. A64U C79A  0.36
104. A65U A75U  0.36
105. A64U U78G  0.35
106. U66C G70A  0.35
107. A64U A75G  0.35
108. A64G U66C  0.34
109. A65G U69C  0.34
110. U66C U69C  0.34
111. U67A C71G  0.33
112. A65G U69A  0.33
113. A64C G70A  0.33
114. U67A C68U  0.33
115. A64G U66A  0.32
116. A64U U67C  0.32
117. A64U U69A  0.32
118. A65G U67C  0.32
119. U66C U67C  0.32
120. U66C U67G  0.32
121. A65G G70A  0.32
122. U66G U69C  0.31
123. A64U U78C  0.31
124. A64G A65C  0.31
125. U66C U69G  0.31
126. A65U C68U  0.31
127. U67A C71A  0.3
128. U67A U69A  0.3
129. A65G U67A  0.3
130. A65U U69A  0.3
131. U66C U69A  0.3
132. U66G C68G  0.29
133. A64U U67A  0.29
134. A65U G73A  0.29
135. A64G G70U  0.29
136. A64U U69C  0.29
137. A65U U67C  0.28
138. A64G A65G  0.28
139. A64C U78C  0.28
140. A65G U66C  0.27
141. A64U G70U  0.26
142. U66C C71A  0.25
143. A64U G70C  0.25
144. A64C A77U  0.25
145. U66C U67A  0.25
146. U66G U72A  0.24
147. U67A G70C  0.23
148. U66C G70U  0.22
149. A64U G70A  0.21
150. A64G G70C  0.21
151. A65U C68A  0.21
152. A64C U67C  0.2
153. A65U A75G  0.2
154. A64G C68A  0.2
155. A65C A77G  0.19
156. A64G A65U  0.19
157. A64C U67A  0.19
158. A64U C71A  0.18
159. A65G U66A  0.17
160. A64C A77G  0.17
161. A64C A65G  0.16
162. A65G U67G  0.16
163. A65C C79G  0.14
164. U67A C71U  0.11
165. A65C A75G  0.11
166. A64C A65U  0.09
167. A65U U67A  0.02
